Data from patent US10449259B2, “Enzyme-responsive peptide nanofiber compositions and uses thereof” (Cornell University, priority 2015, dated 2019).
Primed or numbered codes have the meaning given here. *: point of attachment. mPEG2000 = methoxypolyethylene glycol polymer of 2 kDa, conjugated at the peptide N-terminus; FITC = O=C1OC2(c3ccc(O)cc3Oc3cc(O)ccc32)c2ccc(NC(=S)*)cc21; FITC′ = fluorescein isothiocyanate label; mPEG2000(3) = 2 kDa mPEG at N-terminus; Cy5.5 = Cy5.5 fluorophore

How the values were obtained:
[1] = target: T1, CathB (purified from bovine spleen) (Bos taurus, UniProt P07688); experiment: Enzyme digestion study with CathB (HPLC, MALDI-TOF, TEM, fluorescence); type: biochemical; details: for fluorescence change of quenched nanofibers after CathB digestion: 0.1 μM peptide content, pH 4, 24 hours; for fluorescence change of quenched nanofibers after CathB digestion / CathB digestion, peptide fragments by HPLC: CathB 0.3 U; for CathB digestion, peptide fragments by HPLC: 50 μM peptide content, sodium acetate buffer pH 4, 24 hours; for morphological change in response to CathB digestion (TEM): 24 hour incubation with the enzyme
T1 construct: CathB (purified from bovine spleen); purchased EMD Millipore (Billerica, Mass.); host or cells: bovine spleen (tissue-purified)
Procedure: NFP1 and NFP2 nanofibers (50 μM of peptide content) were incubated with CathB (0.3 U) in sodium acetate buffer (50 μM; pH 4). Nanofibers incubated with buffer only were used as the negative controls. After 24 hours, the samples were taken out for TEM, rp-HPLC, and MALDI-TOF analysis.
Intact or digested NFP1 and NFP2 nanofibers (10 μM of peptide content) in buffer (20 μL) were transferred onto Formvar/carbon-coated 400 mesh copper grids (Electron Microscopy Sciences, Hatfield, Pa.). Excess nanofibers were blotted off using filter paper and the samples were stained with 0.5% (v/v) uranyl formate solution (20 μL). After drying at room temperature, the grids were examined under TEM (JEOL JEM-1400 LaB6 TEM operating at 120 Kv).

[2] = system: triple-negative breast cancer MDA-MB-468 cells; experiment: CellTiter-Glo luminescent cell viability (cytotoxicity) assay, MDA-MB-468; type: cell-based, human; details: for IC50: 5 days of incubation, concentration according to DM1 content, mean ± SD, triplicate; for toxicity of naked nanofibers: below a concentration of 1 μM
Procedure: (§1) The cytotoxicity of drug-loaded NFP1 and NFP2 nanofibers was assessed using the CellTiter-Glo Luminescent Cell Viability Assay (Promega, Madison, Wis.) as previously described in Junttila et al., Breast Cancer Res. Treat. 128 (2), 347-356 (2011). Briefly, cells were seeded on a 96-well plate (2×10^3/well for MDA-MB-231 and MDA-MB-468 and 2×10^4/well for BT474) and were allowed to stabilize overnight. […] After 5 days of incubation, CellTiter-Glo reagent (100 μL) was added to each well. The generated oxyluciferin was quantified for emitted luminescence using a microplate reader (Tecan US Inc., Morrisville, N.C.). All experiments were performed in triplicate, and the results were presented as mean±standard deviation. Statistical analyses were performed using Graph Pad Prism 6.0 software. All data were normalized to the values obtained with the untreated control cells, and half maximal inhibitory concentrations (IC50) were calculated by fitting the obtained data to a sigmoidal curve.
(§2) The cytotoxicity of the DM1-loaded nanofibers was evaluated using various human HER2-positive breast cancer (BT474) and triple-negative breast cancer (MDA-MB-231 and MDA-MB-468) cell lines as ex vivo models. A luminescent cell viability assay was employed to determine the cell viability through quantification of the adenosine triphosphate (ATP) produced by metabolically active cells. This assay offered more accurate and reproducible results compared to the widely used MTS assay (data not shown). Because the cell killing of DM1 is slow, the assays were performed following the incubation of the tested samples for 5 days, as previously described in Junttila et al., Breast Cancer Res. Treat. 128 (2), 347-356 (2011).

[3] = system: triple-negative breast cancer MDA-MB-231 cells; experiment: CellTiter-Glo luminescent cell viability (cytotoxicity) assay, MDA-MB-231; type: cell-based, human; details: for IC50: 5 days of incubation, concentration according to DM1 content, mean ± SD, triplicate; for toxicity of naked nanofibers: below a concentration of 1 μM
Procedure: as §1, §2

[4] = system: HER2-positive breast cancer (BT474) cells; experiment: CellTiter-Glo luminescent cell viability (cytotoxicity) assay, BT474; type: cell-based, human; details: 5 days of incubation, concentration according to DM1 content, mean ± SD, triplicate
Procedure: Briefly, cells were seeded on a 96-well plate (2×10^3/well for MDA-MB-231 and MDA-MB-468 and 2×10^4/well for BT474) and were allowed to stabilize overnight. […] After 5 days of incubation, CellTiter-Glo reagent (100 μL) was added to each well. The generated oxyluciferin was quantified for emitted luminescence using a microplate reader (Tecan US Inc., Morrisville, N.C.). […] Statistical analyses were performed using Graph Pad Prism 6.0 software. All data were normalized to the values obtained with the untreated control cells, and half maximal inhibitory concentrations (IC50) were calculated by fitting the obtained data to a sigmoidal curve.
The cytotoxicity of the DM1-loaded nanofibers was evaluated using various human HER2-positive breast cancer (BT474) and triple-negative breast cancer (MDA-MB-231 and MDA-MB-468) cell lines as ex vivo models. A luminescent cell viability assay was employed to determine the cell viability through quantification of the adenosine triphosphate (ATP) produced by metabolically active cells. […] Because the cell killing of DM1 is slow, the assays were performed following the incubation of the tested samples for 5 days, as previously described in Junttila et al., Breast Cancer Res. Treat.

MDA-MB-468 tumors = experiment: In vivo fluorescence monitoring of distribution after tail vein injection, MDA-MB-468 tumors; parameters: species or system nude mice; details: 0.5 nmol of fluorophore content, 48 hours post-injection
Procedure: Similar results were observed when the animals were injected with GSH-NFP nanofibers having a homogenous length of 400 nm. FIGS. 16A and 16B (white arrows).

mPEG2000 KLDLKLDLKLDLK-Cy5.5 ({mPEG2000(3)}-KLDLKLDLKLDLK-{Cy5.5}) [Cy5.5-NFP2, optically quenched nanofiber prepared using Cy5.5-conjugated peptide constructs only]
fluorescence change of quenched nanofibers after CathB digestion [1]: only slightly increased

T-DM1 [reference compound]
IC50 [2]: 65.2 ± 4.4 nM | IC50 [3]: 68.9 ± 3.8 nM

FITC-NFP2: mPEG2000, self-assembling domain KLDLKLDLKLDLK and FITC fluorophore (mPEG2000-KLDLKLDLKLDLK(FITC)-NH2; not fully specified)
CathB digestion, peptide fragments by HPLC [1]: only one fragment | morphological change in response to CathB digestion (TEM) [1]: assembled into an interfibril network

FITC-NFP1: mPEG2000, hexalysine motif, self-assembling domain KLDLKLDLKLDLK and FITC fluorophore (mPEG2000-KKKKKKKLDLKLDLKLDLK(FITC)-NH2; not fully specified)
CathB digestion, peptide fragments by HPLC [1]: multiple peptide fragments | morphological change in response to CathB digestion (TEM) [1]: disintegrated and became shorter in length

NFP1: naked nanofiber of mPEG peptides with hexalysine motif and self-assembling domain KLDLKLDLKLDLK (mPEG2000-KKKKKKKLDLKLDLKLDLK(FITC′)-NH2; not fully specified)
toxicity of naked nanofibers at high concentration ([2]; 10 μM): significant cell growth inhibition | toxicity of naked nanofibers [2]: nontoxic | sensitivity to CathB digestion ([1]; compared to NFP2): increased sensitivity to CathB digestion | toxicity of naked nanofibers at high concentration ([3]; 10 μM): significant cell growth inhibition | toxicity of naked nanofibers [3]: nontoxic

NFP2: naked nanofiber of mPEG peptides with self-assembling domain KLDLKLDLKLDLK, no hexalysine motif (mPEG2000-KLDLKLDLKLDLK(FITC′)-NH2; also: mPEG, site not given here)
toxicity of naked nanofibers [2]: nontoxic | toxicity of naked nanofibers [3]: nontoxic

COc1cc2cc(c1Cl)N(C)C(=O)C[C@H](OC(=O)[C@H](C)N(C)C(=O)CCS)[C@]1(C)O[C@H]1[C@H](C)[C@@H]1C[C@@](O)(NC(=O)O1)[C@H](OC)/C=C/C=C(\C)C2 [DM1, N2′-deacetyl-N2′-(3-mercapto-1-oxopropyl)-maytansine, reference compound]
IC50 [4]: 68.1 ± 5 nM | IC50 [2]: 21.9 ± 4.1 nM | IC50 [3]: 35.4 ± 4.2 nM

mPEG2000-KKKKKKKLDLKLDLKLDLK-Cy5.5 (mPEG2000-KKKKKKKLDLKLDLKLDLK-{Cy5.5}) [Cy5.5-NFP1, optically quenched nanofiber prepared using Cy5.5-conjugated peptide constructs only]
fluorescence change of quenched nanofibers after CathB digestion [1]: recovery of the fluorescence signal

Cn1cnc(N)c2ncnc1-2 [3MA]
tumoral uptake relative to Cy5.5 (MDA-MB-468 tumors): increased tumoral uptake
